Reference: patent US20100055034A1 (DOMPE PHA MA S P A, published 2010)

What was measured:
[1] = target: T1, human folate receptor alpha as expressed on cells (human, UniProt P15328 25-234); experiment: cell ELISA on fixed IGROV1 cells, F(ab')2; KD = concentration at half of plateau signal
T1 construct: GPI-anchored on the cell surface; Natural expression on OVCAR3 and IGROV1 ovarian carcinoma cells, transfected into A431 cells (A431-FR); also called alpha FR; FR-alpha
Procedure: (§1) 4×10⁴ cells (human ovarian carcinoma cell lines OVCAR3 (ATCC) and IGROVI (a gift from Dr J. Bénard, Institut Gustave Roussy, Villejuif, France), and A431-FR⁽¹⁷⁾ cells which are human epidermoid carcinoma cells transfected with folate receptor alpha,) were seeded in each well of a 96 wells format plate, and grown until a confluent monolayer was obtained. Cells were fixed, for 5 minutes, at room temperature with 0.1% glutaraldehyde in PBS. Plates were washed twice with PBS, then once (5 minutes) with 0.1M glycine in PBS+0.02% NaN₃, successively five times with PBS and finely with PBS containing 1% BSA and 0.02% NaN₃.
(§2) An anti-human IgG (Fab specific, Sigma) peroxidase conjugated diluted 1:1000 in PBS+0.03% BSA was used to reveal antibodies fragment binding.
(§3) Since no signal could be detected on the A431 mock cells which are cells transfected with the empty vector, as compared to the cells transfected with FR-alpha, both AFRA and C4 antibodies were judged to be specific for the alpha folate receptor. […] Table I reports ELISA determination of KD values of F(ab′)₂ of C4 and AFRA antibodies fragments. The KD was determined as to be the concentration at which half of the ELISA plateau signal is obtained.

[2] = target: T1, human folate receptor alpha as …; experiment: cell ELISA on fixed OVCAR3 cells, F(ab')2; KD = concentration at half of plateau signal
Procedure: as §1, §2, §3

[3] = target: T1, human folate receptor alpha as …; experiment: cell ELISA on fixed A431-FR cells, F(ab')2; KD = concentration at half of plateau signal
Procedure: as §1, §2, §3

[4] = target: T2, recombinant soluble human alpha folate receptor with His6 purification tag (human, UniProt P15328 25-232); experiment: SPR (BIAcore), KD of AFRA Fab against KD of C4 Fab
T2 construct: Expressed in CHO-K1 cells and purified from the supernatant; also called soluble alpha FR; recombinant FR
Procedure: (§4) FIG. 3 (BIAcore binding): Determination of antibody fragments binding parameters on alpha folate receptor. For this several concentrations of Fab monomer (from 3 to 200 nM) were flowed in the sensorchip cell previously coated with the recombinant receptor and binding was registered for 30 minutes. After this time period washing was monitored for another twenty minutes.
(§5) The target protein was coated on […] BIAcore sensorchip and several concentrations of both antibody fragments were used to determine the binding kinetics. In particular, recombinant FR was covalently bound to a CM5 sensor chip using the amine coupling kit (Pharmacia) with an antigen concentration of 0.6 μg/ml in 10 mM sodium acetate, pH 4.8 yielding a surface of 280 RU. Residual activated groups were blocked by injection of […] ethanolamine (1.0 M pH 8.5). […] Evaluation was performed for at least 30 minutes. Subsequently, detachment of residual antibody bound to the sensor chip was performed with 100 mM Glycine Buffer pH 2.7.

[5] = target: T2, recombinant soluble human alpha folate …; experiment: SPR (BIAcore), recombinant FR amine-coupled to CM5 chip, Fab monomer 3.125-200 nM in flow
Procedure: as §4, §5

T1 sequence (P15328 25-234): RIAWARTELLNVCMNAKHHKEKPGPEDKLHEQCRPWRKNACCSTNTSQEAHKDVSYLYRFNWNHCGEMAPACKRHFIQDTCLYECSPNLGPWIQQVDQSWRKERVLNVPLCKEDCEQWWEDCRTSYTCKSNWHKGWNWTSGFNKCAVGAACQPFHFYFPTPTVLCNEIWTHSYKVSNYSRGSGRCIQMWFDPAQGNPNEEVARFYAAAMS
T2 sequence (P15328 other isoform, or with tags, fused parts or gaps limits assumed): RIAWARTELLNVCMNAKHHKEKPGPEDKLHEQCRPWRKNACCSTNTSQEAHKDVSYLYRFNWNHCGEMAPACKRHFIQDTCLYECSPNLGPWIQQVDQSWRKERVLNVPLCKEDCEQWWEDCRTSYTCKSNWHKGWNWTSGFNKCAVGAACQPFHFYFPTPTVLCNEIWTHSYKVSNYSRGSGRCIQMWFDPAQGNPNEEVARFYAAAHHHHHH

Row | Kd [1] | Kd [2] | Kd [3] | fold lower KD than C4 [4] | Kd [5] | Binder
1 | 118 nM | 11 nM | 1.2 nM | – | – | C4 F(ab')2 natural dimer (other, C-terminal hinge cysteine disulfide-bonded to the second Fab', The preparation is heavily contaminated: 29% L2H2 dimer, 43% L2H pseudo-dimer and 25% free heavy chain; For heavy chain position 1 see the note of m2; also called F(ab')2-C4) light: QSALTQPASVSGSPGQSITISCTGTSSDVGSYNLVSWYQQHPGKAPKLMIYEGSKRPSGVSNRFSGSKSGNAASLTISGLQAEDEADYYCQSYDSSLSVVFGGGTKLTVLGQPKAAPSVTLFPPSSEELQANKATLVCLISDFYPGAVTVAWKADSSPVKAGVETTTPSKQSNNKYAASSYLSLTPEQWKSHRGYSCQVTHEGSTVEKTVAPTECS heavy: QVQLVESGGGLVQPGRSLRLSCTTSGFTFGDYAMIWARQAPGKGLEWVSSISSSSSYIYYADSVKGRFTISRDNAKNSLYLQMNSLRAEDTAVYYCARERYDFWSGMDVWGKGTTVTVSSASTKGPSVFPLAPSSKSTSGGTAALGCLVKDYFPEPVTVSWNSGALTSGVHTFPAVLQSSGLYSLSSVVTVPSSSLGTQTYICNVNHKPSNTKVDKKDKTSC
2 | 57 nM | 26 nM | 2.5 nM | – | – | AFRA F(ab')2 natural dimer (other, C-terminal hinge cysteine disulfide-bonded to the second Fab', F(ab')2 made by natural oxidation of Fab'; By SDS-PAGE the preparation is 80% L2H2 dimer, 16% L2H and 4% free heavy chain; For Q1N see the note of m1; also called F(ab')2-AFRA; AFRA dimer) light: EIVLTQSPASLAVSPGQRATITCRASESVSFLGINLIHWYQQKPGQPPKLLIYQASNKDTGVPARFSGSGSGTDFTLTINPVEANDTANYYCLQSKNFPPYTFGQGTKLEIKRTVAAPSVFIFPPSDEQLKSGTASVVCLLNNFYPREAKVQWKVDNALQSGNSQESVTEQDSKDSTYSLSSTLTLSKADYEKHKVYACEVTHQGLSSPVTKSFNRGEC heavy: NVQLVESGGGLVQPGRSLRLSCTTSGFTFGDYAMIWARQAPGKGLEWVSSISSSSSYIYYADSVKGRFTISRDNAKNSLYLQMNSLRAEDTAVYYCARERYDFWSGMDVWGKGTTVTVSSASTKGPSVFPLAPSSKSTSGGTAALGCLVKDYFPEPVTVSWNSGALTSGVHTFPAVLQSSGLYSLSSVVTVPSSSLGTQTYICNVNHKPSNTKVDKKDKTSC
3 | – | – | – | 3 fold | 43.9 nM | AFRA Fab fragment (Anti Folate Receptor Alpha human Fab, kappa light chain) (Fab, V domains shown, Made in E. coli periplasm; also called AFRA monomer; Fab AFRA) VH: NVQLVESGGGLVQPGRSLRLSCTTSGFTFGDYAMIWARQAPGKGLEWVSSISSSSSYIYYADSVKGRFTISRDNAKNSLYLQMNSLRAEDTAVYYCARERYDFWSGMDVWGKGTTVTVSS VL: EIVLTQSPASLAVSPGQRATITCRASESVSFLGINLIHWYQQKPGQPPKLLIYQASNKDTGVPARFSGSGSGTDFTLTINPVEANDTANYYCLQSKNFPPYTFGQGTKLEIKR
4 | – | – | – | – | 168 nM | C4 Fab fragment (human anti-folate receptor alpha Fab, lambda light chain) (Fab, V domains shown, It says only that C4 and AFRA share the heavy chain except for Q1N in AFRA, so C4 has Q at position 1; also called Fab C4) VH: QVQLVESGGGLVQPGRSLRLSCTTSGFTFGDYAMIWARQAPGKGLEWVSSISSSSSYIYYADSVKGRFTISRDNAKNSLYLQMNSLRAEDTAVYYCARERYDFWSGMDVWGKGTTVTVSS VL: QSALTQPASVSGSPGQSITISCTGTSSDVGSYNLVSWYQQHPGKAPKLMIYEGSKRPSGVSNRFSGSKSGNAASLTISGLQAEDEADYYCQSYDSSLSVVFGGGTKLTVLG
